Numbering of substitutions follows the chain as printed. Numbers in names are those of the source.
B1: HaloTag[22-297](M2F): large HaloTag fragment, positions 22-297 with M to F substitution at second position (protein)
chain: MFHYVDVGPRDGTPVLFLHGNPTSSYVWRNIIPHVAPTHRCIAPDLIGMGKSDKPDLGYFFDDHVRFMDAFIEALGLEEVVLVIHDWGSALGFHWAKRNPERVKGIAFMEFIRPIPTWDEWPEFARETFQAFRTTDVGRKLIIDQNVFIEGTLPMGVVRPLTEVEMDHYREPFLNPVDREPLWRFPNELPIAGEPANIVALVEEYMDWLHQSPVPKLLFWGTPGVLIPPAEAARLAKSLPNCKAVDIGPGLNLLQEDNPDLIGSEIARWLSTLEISG
B2: HaloTag[22-297](Q145H+P154R): variant of the LgHT, positions 22-297 with HaloTag9 mutations (protein)
chain: B1 chain with F2M, Q145H, P154R

Tested on: HeLa cells
Experiment: Live cell confocal imaging of split HaloTag in the FRB/FKBP model system in HeLa cells
Assay type: cell-based
Settings: for signal-to-background ratio, complemented split HaloTag over labeling the large HaloTag alone: presence of Rapamycin; for S:B ratio in +rapamycin/−rapamycin conditions: with HaloTag[3-19] fragment, JF646 imaging
Experimental: (§1) FIG. 105. Live cell imaging of split HaloTag activity in mammalian cells using a model protein interaction system showing dependence on interaction facilitation for labeling. HeLa cells transiently transfected with plasmids expressing both EGFP-FKBP-HaloTag[3-19] and HaloTag[22-297](Q145H+P154R)-FRB were imaged in +/−Rapamycin conditions; in +Rapamycin condition cells were incubated with 1 micromolar Rapamycin overnight at 37° C. Prior to imaging by confocal microscopy, cells were labeled with 100 nM JF646 HaloTag ligand for 30 minutes at 37° C. The Imaging data were collected in the Far-red channel (Ex. 637 nm, left) and the green channel (Ex. 488 nm, right).
(§2) FIG. 106. Quantitation of live cell imaging of split HaloTag activity in mammalian cells using a model protein interaction system. HeLa cells transiently transfected with plasmids expressing both EGFP-FKBP-HaloTag[3-19] and HaloTag[22-297](Q145H+P154R)-FRB were imaged in +/−Rapamycin conditions; in +Rapamycin condition cells were incubated with 1 micromolar Rapamycin overnight at 37° C. Prior to imaging by confocal microscopy, cells were labeled with 100 nM JF646 HaloTag ligand for 30 minutes at 37° C. Comparison of the fluorescence intensity of non-complemented vs. complemented split HaloTag in +/−RAP conditions in the far-red channel, respectively.
as §1, with “107.” for “105.”, “HaloTag[22-297](M2F)-FRB” for “HaloTag[22-297](Q145H+P154R)-FRB”
as §2, with “FIG. 108. Quantitation of” for “FIG. 106. Quantitation of”, “EGFP-FKBP-HaloTag[3-19] and HaloTag[22-297](M2F)-FRB were imaged” for “EGFP-FKBP-HaloTag[3-19] and HaloTag[22-297](Q145H+P154R)-FRB were imaged”, “minutes at Comparison of” for “minutes at 37° C. Comparison of”
FIG. 109. […] Each dot represents the intensity of an imaged cell as quantitated using CellProfiler software.
FIG. 115. Live cell imaging of split HaloTag activity in mammalian cells. HeLa cells transiently transfected with plasmids expressing both EGFP-FKBP-HaloTag[3-19] and HaloTag[22-297](Q145H+P154R)-FRB were imaged in +Rapamycin condition, 1 micromolar Rapamycin overnight incubation at 37° C. Prior to imaging by confocal microscopy, cells were labeled with 100 nM JF646 HaloTag ligand for 30 minutes at 37° C. The Imaging data were collected in the Far-red channel (Ex. 637 nm, bottom) and the green channel (Ex. 488 nm, top).
FIG. 116. Live cell imaging of split HaloTag activity in mammalian cells. HeLa cells transiently transfected with plasmids expressing both EGFP-FKBP-HaloTag[3-19] and HaloTag[22-297](Q145H+P154R)-FRB were imaged in and −Rapamycin condition. […]

Molecule	signal-to-background ratio, complemented split HaloTag over labeling the large HaloTag alone	S:B ratio in +rapamycin/−rapamycin conditions	response to Rapamycin (HaloTag[3-19] fusion plus variant LgHT fusion, 1 micromolar Rapamycin, 100 nM JF646)
B1	16	about 6.7	
B2	5.7	about 4	25 fold

— patent publication US20240174992A1, “SPLIT MODIFIED DEHALOGENASE VARIANTS” (Promega Corporation, priority 2022, published 2024)
